Source: patent US20230348540A1 (UNIVERSITY OF COPENHAGEN, published 2023)
Ends that are not written are not given here. * marks the point of attachment. Biotin = O=C1N[C@H]2[C@H](CS[C@H]2CCCCC(=O)*)N1; Ahx = NCCCCCC(=O)O

B1: GCN4p1-GS4-GS4 (non-binding control peptide) (peptide)
peptide: not shown
modifications: N-terminal biotin joined through 6-aminohexanoic acid (Ahx)
notes: also called biotin-Ahx-GCN4p1-GS4-GS4; biotin-Ahx-GCN4p1-GS-GS

What follows are binders tested against T1, nNOS protein in mouse spinal cord lysate (mouse, UniProt Q9Z0J4 1-1429, limits assumed) (assay: pull-down with biotinylated peptide on streptavidin beads from mouse spinal cord lysate, western blot [D]).
T1 construct: Endogenous protein, detected by Western blot after pull-down
B1: no binding.

What follows are binders tested against T2, Full length rat PICK1 (Protein Interacting with C Kinase-1) (rat, UniProt Q9EP80 1-416) (assay: FP competition on purified PICK1, tracer 5FAM-HWLKV 20 nM; fold change against HWLKV [panel 1 from the left]).
T2 construct: mature; Residues left by the cleaved tag are not described; also called purified PICK1
NYIRV (also called DAT-C5 variant): binds. NYIIV (also called DAT-C5 variant): binds. NEIRV (also called DAT-C5 variant): binds. NSIRV (also called DAT-C5 variant): binds. NEVRV (also called DAT-C5 variant): binds. NEIIV (also called DAT-C5 variant): binds. NSVRV (also called DAT-C5 variant): binds. NSVIV (also called DAT-C5 variant): binds. NSIIV (also called DAT-C5 variant): binds.

What follows are binders tested against T2, Full length rat PICK1 (Protein …) (assay: FP competition on purified PICK1, tracer 5FAM-HWLKV 20 nM; fold change against HWLKV [panel 2 from the left]).
NYVRV (also called DAT-C5 variant): binds. TEVIV (also called DAT-C5 variant): binds. TEIRV (also called DAT-C5 variant): binds. NYVIV (also called DAT-C5 variant): binds. TSIRV (also called DAT-C5 variant): binds. TSVIV (also called DAT-C5 variant): binds. TSIIV (also called DAT-C5 variant): binds. TEVRV (also called DAT-C5 variant): binds.

Each binder was assayed against T3, PICK1 protein in mouse spinal cord lysate (mouse, UniProt Q62083 1-416) (assay: pull-down with biotinylated peptide on streptavidin beads from mouse spinal cord lysate, western blot [D]).
T3 construct: Endogenous protein, detected by Western blot after pull-down
B1: no binding.

These binders were tested against T2, Full length rat PICK1 (Protein …) (assay: FP competition on purified PICK1, tracer 5FAM-HWLKV 20 nM; fold change against HWLKV [panel 5 from the left]).
EVIV (also called DAT-C5 variant): binds. EVRV (also called DAT-C5 variant): binds. YIRV (also called DAT-C5 variant): binds. YVRV (also called DAT-C5 variant): binds. YVIV (also called DAT-C5 variant): binds. EIRV (also called DAT-C5 variant): binds. YIIV (also called DAT-C5 variant): binds.

These binders were tested against T2, Full length rat PICK1 (Protein …) (assay: FP competition, tracer 5-FAM-(HWLKV)2 10 nM, PICK1 (Example 8)).
Procedure: The plates were incubated 30-40 min on ice and the fluorescence polarization was measured on an Omega POLARstar plate (BMG LABTECH) reader using excitation filter at 485 nm and long pass emission filter at 520 nm. The data was plotted using GraphPad Prism 8.3, and fitted to the ‘One site—Fit’ Kᵢ competition curve, to extract apparent KI values.
Work on {Biotin-Ahx}-GELAAIKQELAAIKKELAAIKWELAAIKQGGGGSHWLKV (also called CC-tet2-GS4-HWLKV) [CC-Tet-GS4-HWLKV] yielded a Ki of 0.00247 µM. {Biotin-Ahx}-GEIAKSLKEIAKSLKEIAWSLKEIAKSLKGGGGSHWLKV (also called CC-hex-GS4-HWLKV) [CC-Hex2-GS4-HWLKV] was tested, and the Ki was 0.0229 µM.

These binders were tested against T2, Full length rat PICK1 (Protein …) (assay: FP competition on purified PICK1, tracer 5FAM-HWLKV 20 nM; fold change against HWLKV [panel 3 from the left]).
FSIIV (also called DAT-C5 variant): binds. TYIIV (also called DAT-C5 variant): binds. TYVRV (also called DAT-C5 variant): binds. TYIRV (also called DAT-C5 variant): binds. FSVRV (also called DAT-C5 variant): binds. FEIIV (also called DAT-C5 variant): binds. FSIRV (also called DAT-C5 variant): binds. TYVIV (also called DAT-C5 variant): binds. FEIRV (also called DAT-C5 variant): binds.

These binders were tested against T2, Full length rat PICK1 (Protein …) (assay: FP competition (FIG. 17C)).
{Biotin-Ahx}-GEIAKSLKEIAKSLKEIAWSLKEIAKSLKGGGGSNSVRV [CC-Hex2-GS4-NSVRV]: binds.

These binders were tested against T2, Full length rat PICK1 (Protein …) (assay: FP competition on purified PICK1, tracer 5FAM-HWLKV 20 nM; fold change against HWLKV [panel 4 from the left]).
SIIV (also called DAT-C5 variant): binds. SVRV (also called DAT-C5 variant): binds. SVIV (also called DAT-C5 variant): binds. EIIV (also called DAT-C5 variant): binds. FYIRV (also called DAT-C5 variant): binds. FEVIV (also called DAT-C5 variant): binds. FYVIV (also called DAT-C5 variant): binds. FYVRV (also called DAT-C5 variant): binds. FYIIV (also called DAT-C5 variant): binds. FEVRV (also called DAT-C5 variant): binds.

What follows are binders tested against T4, TRX-6xHis-hPSD95 1-724 (full length human PSD-95) (human, UniProt P78352 1-724, Alexa488 label in the confocal experiment of Example 5 only) (assay: SDS-PAGE sedimentation assay).
T4 construct: range 1-724; Purified by HisTrap and SEC; also called FL-PSD-95; not shown: TRX-6xHis tag encoded by the pET-MG-3C plasmid
SNTANRRTTPV (also called Stg; RRTTPV monomer): binds.

The binders below were run against T5, PSD-95 PDZ1-2 (UniProt P78352 61-249, limits assumed) (assay: FP competition, tracer 5-FAM-(IETAV)2 5 nM, PSD-95 PDZ12 0.15 µM).
T5 construct: domain: PDZ1-2
Excerpt: FIG. 18: Fluorescence polarization competition binding curves for the unlabelled peptides. […] Data expressed as mean±SEM (n=3).
The data was plotted using GraphPad Prism 8.3, and fitted to the ‘One site—Fit’ Kᵢ competition curve, to extract apparent KI values.
{Biotin-Ahx}-GEIAKSLKEIAKSLKEIAWSLKEIAKSLKGGGGSIETDV [CC-Hex2-GS4-IETDV] gave a Ki of 0.056 µM. {Biotin-Ahx}-GEIAKSLKEIAKSLKEIAWSLKEIAKSLKGGGGSRRTTPV [CC-Hex2-GS4-RRTTPV] gave a Ki of 0.242 µM.

These binders were tested against T6, PSD-95 protein in mouse spinal cord lysate (mouse, UniProt Q62108 1-724, limits assumed) (assay: pull-down with biotinylated peptide on streptavidin beads from mouse spinal cord lysate, western blot [D]).
T6 construct: Endogenous protein, detected by Western blot after pull-down
B1: no binding.
